Reference: US9068161B2, “Laccases and uses thereof” (DEINOVE, priority 2010, dated 2015)

B1: Deinococcus cellulolysiticus DRH46 laccase 1, recombinant, SEQ ID NO: 2 (Deinococcus cellulosilyticus NBRC 106333 = KACC 11606) (protein)
chain: NPDVISYQDPEPLAGQRSGKAAEFTLTAQKSRLDLAGQSVEALTYNGTFPGPLLTLKAGEDVRITLKNNLSEPTNLHLHGLPLSPEVDDPFVVVPPGGSHTYAFQVPEEVHGTFWYHTHTHGASAAQLFSGLAGPLLVEAAKPNNPIEHMETHTVVFKDLPGAQHADDGVLMNGRENTLLVNGLVSPTLKTENSWVQLRLINASNARYLRLKLDDGLLQVVARDGIDLPGMERAQELLLTPGERADVLVSLQDHQNLKLQNLPYDRGVHSMGSHSGHTESKTAVVLTLQGPQKPGASVPRVETAPPPFLQLQGNEKVRKVILQETMQPVKFFINGRSFDMNRVDFHVSEGSTEIWELQNTTEMDHPFHLHTFPMQLIRIGGKEVPPVWKDTVNIPKNSTVTVAVHFKGFTGKTVFHCHIAEHEEAGMMGLLQVHPSGTALPASLEPIEPTVGPGEDAQHGH
B2: Deinococcus cellulolysiticus DRH46 laccase 2, recombinant, SEQ ID NO: 4 (Deinococcus cellulosilyticus NBRC 106333 = KACC 11606) (protein)
chain: PKGSPMTEYHNPAEVQASRTEKGSTFTLTAAETSITLDGKEVKAQLFNQSFPGPQLTLQAGEQVNLTLKNDLREPTNLHLHGLTLPAGVDDPFLQVQPGESHTYSFTVPQGLHGTFWYHTHTHGHLGTQLFQGLAGPLIVEDPTFDSHIQGMETHTVVLKDLPVEVQDSDGTRMNGREGKLLVNGLSSPTLKTESSWVRLRLINASNARYDLLKLSGSAFLHVIAKDGIDLPKTEQVKELLLTPGERADVLISVQDQQDLRLENHPYDRGVHEMDGGHQGHTPSTPEVLLTLQGKKGSVSASVPQPALQPRPFLKVTGNEAIRKVVLQETMQPVKFFINGRTFDMNRVDFHVSEGTTEIWEVENQTEMDHPFHLHTFPVQVLSVNGQEVPPVWKDTVNVPAKAKVQVAVKFEGFTGKTVFHCHIAEHEEEGMMGVLQVHPAGEALPASLTPTLPPAAASEDMPDMPGMDHSGH
B3: Laccase 1: enzyme having laccase activity from Deinococcus cellulolysiticus DRH46, amino acid sequence SEQ ID NO: 2, recombinant with 6(His) tag (protein)
chain: MKQRLTAAALLTALLSSCAMKNPDVISYQDPEPLAGQRSGKAAEFTLTAQKSRLDLAGQSVEALTYNGTFPGPLLTLKAGEDVRITLKNNLSEPTNLHLHGLPLSPEVDDPFVVVPPGGSHTYAFQVPEEVHGTFWYHTHTHGASAAQLFSGLAGPLLVEAAKPNNPIEHMETHTVVFKDLPGAQHADDGVLMNGRENTLLVNGLVSPTLKTENSWVQLRLINASNARYLRLKLDDGLLQVVARDGIDLPGMERAQELLLTPGERADVLVSLQDHQNLKLQNLPYDRGVHSMGSHSGHTESKTAVVLTLQGPQKPGASVPRVETAPPPFLQLQGNEKVRKVILQETMQPVKFFINGRSFDMNRVDFHVSEGSTEIWELQNTTEMDHPFHLHTFPMQLIRIGGKEVPPVWKDTVNIPKNSTVTVAVHFKGFTGKTVFHCHIAEHEEAGMMGLLQVHPSGTALPASLEPIEPTVGPGEDAQHGH
modifications: 6xHis tag; Laccase 1 derived from Deinococcus cellulolyticus DRH46
B4: Laccase 2: enzyme having laccase activity from Deinococcus cellulolysiticus DRH46, amino acid sequence SEQ ID NO: 4, recombinant with 6(His) tag (protein)
chain: MIRTLTSLTLLTVALTACAPKGSPMTEYHNPAEVQASRTEKGSTFTLTAAETSITLDGKEVKAQLFNQSFPGPQLTLQAGEQVNLTLKNDLREPTNLHLHGLTLPAGVDDPFLQVQPGESHTYSFTVPQGLHGTFWYHTHTHGHLGTQLFQGLAGPLIVEDPTFDSHIQGMETHTVVLKDLPVEVQDSDGTRMNGREGKLLVNGLSSPTLKTESSWVRLRLINASNARYDLLKLSGSAFLHVIAKDGIDLPKTEQVKELLLTPGERADVLISVQDQQDLRLENHPYDRGVHEMDGGHQGHTPSTPEVLLTLQGKKGSVSASVPQPALQPRPFLKVTGNEAIRKVVLQETMQPVKFFINGRTFDMNRVDFHVSEGTTEIWEVENQTEMDHPFHLHTFPVQVLSVNGQEVPPVWKDTVNVPAKAKVQVAVKFEGFTGKTVFHCHIAEHEEEGMMGVLQVHPAGEALPASLTPTLPPAAASEDMPDMPGMDHSGH
modifications: 6xHis tag; Laccase 2 derived from Deinococcus cellulolyticus DRH46

How the values were obtained:
[1] = substrate: COc1cccc(OC)c1O; experiment: Laccase assay, Laccase 1 activity (oxidation of substrates, spectrophotometric); type: biochemical, Deinococcus cellulolysiticus DRH46; conditions: other: 60° C., pH 8, 0.1M citrate-phosphate buffer, 0.05 mg/mL purified enzyme
Text: (§1) Two enzymes having laccase activity have been characterized from Deinococcus cellulolysiticus DRH46 (namely laccase 1, laccase 2), and one enzyme having laccase activity has been characterized from Deinococcus maricopensis DSM 21211 (i.e., laccase 3). The amino acid sequences of laccase 1, laccase 2 and laccase 3 are represented in SEQ ID NO: 2, 4 and 6, respectively.
(§2) As mentioned in Example 1, nucleic acids encoding the laccase 1, 2 and 3 enzymes comprising the amino acid sequence of SEQ ID NO: 2, 4 or 6 respectively, were cloned into the pETDEST42 vector according to conventional recombinant techniques. In each vector, the cloned nucleic acid was cloned in frame with a 6(His) tag (SEQ ID NO: 7), to facilitate purification of the recombinant protein.
(§3) E. coli cells harboring the recombinant nucleic acid are prepared and grown in 4 liters of LB medium. Induction of the enzyme production is performed overnight in the presence of 1 mM IPTG and 2 mM of […]. […]
(§4) The assay is performed at T=45° C. and 60° C., pH=8. The absorbance was measured at A470 nm and the measure was carried out using Continuous Spectrophotometric Rate Determination. […]
(§5) Reagent A (185 μl) was mixed with Reagent B (10 μl). […] The absorbance at 470 nm was monitored until constant, using a suitably thermoregulated spectrophotometer. Then Reagent C (5 μl) was added and the increase in A470 nm was recorded for 30 minutes. […]

[2] = substrate: COc1ccccc1O; experiment: as above; type: biochemical, Deinococcus cellulolysiticus DRH46; conditions: other: 60° C., pH 8, 0.1M citrate-phosphate buffer, 0.05 mg/mL purified enzyme
Text: as §1, §2, §3, §4, §5

[3] = substrate: COc1cccc(OC)c1O; experiment: Laccase assay, Laccase 2 activity (oxidation of substrates, spectrophotometric); type: biochemical, Deinococcus cellulolysiticus DRH46; conditions: other: 60° C., pH 8, 0.1M citrate-phosphate buffer, 0.05 mg/mL purified enzyme
Text: as §1, §2, §3, §4, §5

[4] = substrate: COc1ccccc1O; experiment: as above; type: biochemical, Deinococcus cellulolysiticus DRH46; conditions: other: 60° C., pH 8, 0.1M citrate-phosphate buffer, 0.05 mg/mL purified enzyme
Text: as §1, §2, §3, §4, §5

[5] = Temperature and pH optimum of laccase activity; type: biochemical; conditions: 2,6 DMP as substrate
Description: (§6) Standard assays for laccase activity were performed at the temperature range from 30° C. to 90° C. by measurement of enzymatic oxidation of substrates at appropriate wavelength. The reaction was performed in presence of a substrate concentration range, 0.05 mg/mL of purified enzyme and 1 mM prepared in 0.1M citrate-phosphate buffer pH8.
In another series of experiments, the laccase activity according to the invention, was also tested in different conditions of temperature and pH using various substrates.

[6] = Laccase assay, overall conclusion on recombinant enzyme; type: biochemical; conditions: in the tested conditions
Description: as §6
Standard assays were performed using the following substrates: 2,6 DMP, 4-methyl DMP, synapic acid, syringic acid, guaiacol, ABTS, paraphenylenediamine and ferulic acid.
Reagent A (185 μl) was mixed with Reagent B (10 μl). The mixture was equilibrated to 45° C. or 60° C. The absorbance at 470 nm was monitored until constant, using a suitably thermoregulated spectrophotometer. Then Reagent C (5 μl) was added and the increase in A470 nm was recorded for 30 minutes. The ΔA470 nm/minute was obtained using the maximum linear rate for the Test, Control and Blank, Blank being mixture without enzyme and Control being mixture with laccase from Trametes versicolor (T. versicolor, commercial enzyme) replacing Laccase enzyme solution (Reagent C).
Other substrates, different from 2,6 DMP such as 4-methyl DMP, synapic acid, syringic acid, guaiacol, ABTS, paraphenylenediamine and ferulic acid have also been tested at optimal concentration for each substrate (as shown in Tables 1A and 1B).

| Molecule | Km [1] [µM] | Km [2] [µM] | Km [3] [µM] | Km [4] [µM] | Optimal pH [5] | Optimal temperature [5] [°C] | Laccase activity of the recombinant enzyme [6] |
| --- | --- | --- | --- | --- | --- | --- | --- |
| B1 | 798 ± 35 | 3046 ± 183 | – | – | – | – | – |
| B2 | – | – | 992 ± 141 | 5074 ± 343 | – | – | – |
| B3 | – | – | – | – | 8 | 90 | fully active |
| B4 | – | – | – | – | 8 | 70 | fully active |
